Measured values from patent publication US20090305946A1.

Tests used:
[1] = biological target: full-length human Presenilin-1 (human) (UniProt P49768); test: cell-based or functional assay
[2] = biological target: full-length human Presenilin-1 (human) (UniProt P49768); test: [^35S]-GTPγS labelling of extracts of co-transfected ES cells, immunoprecipitation with anti-PS-1
[3] = biological target: full-length human Presenilin-1 (human) (UniProt P49768); test: ^35S-GTPγS incorporation in extracts of co-transfected ES cells, immunoprecipitation with anti-PS-1 loop MAb, scintillation counting
[4] = biological target: full-length human Presenilin-2 (human) (UniProt P49810); test: ^35S-GTPγS incorporation in extracts of co-transfected ES cells, immunoprecipitation with anti-PS MAb, scintillation counting
[5] = biological target: endogenous rat PS proteins in rat hippocampal membranes; test: cell-based or functional assay

Sequence of human G-protein GαoA (P09471 2-354): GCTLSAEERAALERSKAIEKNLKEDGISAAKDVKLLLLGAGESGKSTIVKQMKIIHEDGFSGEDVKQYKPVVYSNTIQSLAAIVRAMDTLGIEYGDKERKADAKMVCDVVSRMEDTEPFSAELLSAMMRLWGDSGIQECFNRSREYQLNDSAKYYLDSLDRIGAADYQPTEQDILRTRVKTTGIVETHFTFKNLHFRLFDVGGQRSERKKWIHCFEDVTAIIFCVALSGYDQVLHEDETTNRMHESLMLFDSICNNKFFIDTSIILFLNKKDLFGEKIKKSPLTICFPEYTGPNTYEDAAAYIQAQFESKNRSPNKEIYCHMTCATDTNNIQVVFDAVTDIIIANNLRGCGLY
Sequence of soluble ectodomain of human β-APP, baculovirus-derived (P05067 18-701): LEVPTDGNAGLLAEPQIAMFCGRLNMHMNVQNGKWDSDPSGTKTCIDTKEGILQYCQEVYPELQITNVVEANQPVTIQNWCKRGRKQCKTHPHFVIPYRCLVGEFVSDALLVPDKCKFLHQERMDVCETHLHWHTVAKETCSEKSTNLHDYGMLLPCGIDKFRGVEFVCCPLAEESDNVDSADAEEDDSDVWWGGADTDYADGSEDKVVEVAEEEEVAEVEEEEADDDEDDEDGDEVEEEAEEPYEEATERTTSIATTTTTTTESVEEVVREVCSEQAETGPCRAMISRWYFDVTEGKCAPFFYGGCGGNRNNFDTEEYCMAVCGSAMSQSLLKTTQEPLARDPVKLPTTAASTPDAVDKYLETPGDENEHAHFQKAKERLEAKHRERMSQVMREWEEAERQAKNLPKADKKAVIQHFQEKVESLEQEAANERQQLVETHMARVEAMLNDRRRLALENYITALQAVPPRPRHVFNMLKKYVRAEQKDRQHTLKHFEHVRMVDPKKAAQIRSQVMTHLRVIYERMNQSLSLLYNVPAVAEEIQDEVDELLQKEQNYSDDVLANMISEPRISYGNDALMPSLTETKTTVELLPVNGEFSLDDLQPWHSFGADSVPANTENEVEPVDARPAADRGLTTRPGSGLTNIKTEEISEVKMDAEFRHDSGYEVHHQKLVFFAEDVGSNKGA

full-length human β-amyloid precursor protein (from UniProt P05067 18-770) (ligand)
^35S-GTPγS incorporation (Gαo immunoprecipitated with K-20), high density co-culture (% increase over basal) [1]: 200 | ^35S-GTPγS incorporation (Gαo immunoprecipitated with K-20), high density co-culture with PTx (% lower than basal) [1]: 38 | ^35S-GTPγS incorporation (Gαo immunoprecipitated with K-20), low density co-culture (% increase over basal) [1]: 33

human G-protein GαoA (from UniProt P09471 2-354)
fold increase in ^35S-incorporation immunoprecipitated with antibody to PS-1 [2]: 8 fold | ^35S-GTPγS incorporation, % of untransfected control [3]: 700% | % increase in ^35S-GTPγS binding over untransfected control [4]: 700%

soluble ectodomain of human β-APP, baculovirus-derived (from UniProt P05067 18-701) (ligand)
^35S-GTPγS incorporation in solubilized rat hippocampal membranes [5]: 600 % increase | ^35S-GTPγS incorporation in solubilized rat hippocampal membranes (% greater than untreated) [5]: 100 | ^35S-GTPγS incorporation (Gαo) in PS-1-only APP-/- fibroblasts [1]: 500 % increase
